Data taken from article PMC12377726 (Proceedings of the National Academy of Sciences of the …, 2025).
Numbering of substitutions follows the chain as printed.

B1: G001_gp1_V08_VRC01c_2021-0073 (antibody, V domains shown)
VH: QVQLVQSGAEVKKPGASVKVSCKASGYTFTGYYMHWVRQAPGQGLEWMGWINPNSGGTNYAQKFQDWVTMTRDTSISTAYMELRRLRSDDTAVYYCARGMSAKWFDSWGQGTLVTVSS
VL: EIVLTQSPGTLSLSPGERATLSCRASQSFSNSYVAWYQQKPGQGPRLLIYGASSRATGIPDRFSGSGSGTDFTLTISRLEPEDFAVYYCQQYETFGQGIKLEIT
B2: G001_gp1_V08_VRC01c_2021-0081 (antibody, V domains shown)
VH: QVQLVQSGAEVKKPGASVKVSCKASGYTFTDHYMHWVRQAPGQGLEWMGWINPNSGGTNYAQKFQGWVTMTRDTSVSTAYMEVRRLRSDDTAVYYCAIIHYRRSSWEFAYWGQGTLVTVSS
VL: DIQMTQSPSSLSASVGDRVTVTCQASQDISNSLNWYQQKPGKAPKLLIYGASNLETGVPSRFSGSGSGTDFTFTISSLQPEDIGTYYCQQYETFGQGTKLEIR
B3: G001_gp1_V08_VRC01c_2021-0055 (antibody, V domains shown)
VH: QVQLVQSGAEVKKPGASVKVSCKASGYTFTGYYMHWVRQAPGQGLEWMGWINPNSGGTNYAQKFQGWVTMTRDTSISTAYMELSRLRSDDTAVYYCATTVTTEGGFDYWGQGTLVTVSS
VL: QSALTQPPSASGSPGQSVTISCTGTSSDVGGYNYVSWYQQHPGKAPKLMIYEVSKRPSGVPDRFSGSKSGNTASLTVSGLQAEDEADYYCSSYEVFGTGTKVTVL
B4: G001_gp1_V08_VRC01c_2021-0056 (antibody, V domains shown)
VH: QVQLVQSGAEVKKPGASVTVSCKASGYTFTGYYMHWVRQAPGQGLEWMGWINPNSGGTNYAQKFQDWVTMTRDTSISTAYMELSRLRSDDTAVYYCATALGGSPGRIWSMDVWGQGTTVTVSS
VL: B3 VL with P8A, A10V, V18I, Y32S, M49L, E52D, K55N, P61S, D62S, V77I
B5: G001_gp1_V10_VRC01c_159 (antibody, V domains shown)
VH: QVQLVQSGAEVKKPGASVKVSCKASGYTFADYYIHWVRQAPGQGLEWMGWINPNSGGTNYAQKFQGRVTMTRDTSITTAYMELSRLGSDDTAVYYCARAYYGDYGDYWGQGTLVTVSS
VL: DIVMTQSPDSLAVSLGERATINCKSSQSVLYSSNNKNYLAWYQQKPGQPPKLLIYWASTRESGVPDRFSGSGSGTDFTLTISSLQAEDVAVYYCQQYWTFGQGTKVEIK
B6: G001_gp1_V08_VRC01c_2021-0062 (antibody, V domains shown)
VH: QVQLVQSGAEVKKPGASVKVSCKASGYTFTGYYIHWVRQAPGQGLEWMGWINPNSGGTNYAQEFQDWVTMTRDTSISTAYMELSRLSSDDTAVFYCARAKYYDAWSGYYFDFWGQGTLVTVSS
VL: DIQMTQAPSTLSASVGDRVTITCRASETTSSWVAWYQQKPGKAPKVLIYDASSLQSGVPSRFSGSGSGTEFTLTISSLQPDDFATYYCQQYNTFGGGTKVEIK
B7: G001_gp1_V10_VRC01c_164 (antibody, V domains shown)
VH: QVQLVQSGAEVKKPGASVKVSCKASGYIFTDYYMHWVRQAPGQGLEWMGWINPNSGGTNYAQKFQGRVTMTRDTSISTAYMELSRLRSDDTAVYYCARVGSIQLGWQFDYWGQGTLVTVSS
VL: EIVMTQSPATLSVSPGERATLSCRASQSVSSNLAWYQQIPGQAPRLLIYGTSTRATGIPARFSGSGSGTEFTLTISSLQSEDFAVYYCQQYETFGQGTKLEIK
B8: G001_gp1_V08_VRC01c_2021-0052 (antibody, V domains shown)
VH: QVQLVQSGAEVKKPGASVKVSCKASGHTFSGYYMHWVRQAPGQGLEWMGWINPNSGGTNYAQKFQGRVTMTRDTSISTAYMELSRLRTYDTAVYYCARAYSSGWRFGWGQGTMVTVSS
VL: DIQMTQSPSSLSASVGDRVTITCQASQDITKYLNWYQQKPGQAPKLLIYDASNLETGVPSRFSGSGSGTYFTFTISSLQPEDIATYYCQQYDNFGGGTKVEIK
B9: G001_gp1_V08_VRC01c_2021-0082 (antibody, V domains shown)
VH: QVQLVQSGTEVKKPGASVKVSCKASGYTFTGYYIHWVRQAPGQGLEWMGWINPNSGGTNYAQKFQGWVTMTRDTSISTAYMELRRLTSVDTAVYYCARARSGYSSGWYWAYWGQGTLVTVSS
VL: B8 VL with T30S, K31N, Q42K, Y70D, D92E, N93F
B10: G001_gp1_V10_VRC01c_160 (antibody, V domains shown)
VH: QVQLVQSGAEVKKPGASMKVSCEASGYTFTDYYMHWVRQAPGQGLEWMGWINPNSGGTNYAQKFQGRVTMTRDTSISTAYMELSRLRSDDTAVYYCATSIRDYLSGKVWYLGLWGRGTLVTVSS
VL: B2 VL with V21I, S32Y, G50D, S76T, G84A, L100V, R103K
B11: G001_gp1_V08_VRC01c_2021-0053 (antibody, V domains shown)
VH: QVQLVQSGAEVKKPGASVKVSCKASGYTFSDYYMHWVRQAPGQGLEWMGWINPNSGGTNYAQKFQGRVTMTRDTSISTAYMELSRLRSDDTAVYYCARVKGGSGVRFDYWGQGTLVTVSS
VL: B8 VL with T30S, K31N, Q42K, P59T, Y70D, D92V, N93T
B12: G001_gp1_V08_VRC01c_2021-0078 (antibody, V domains shown)
VH: QVQLVQSGAEVKKPGASVKVSCKASGYTFTGYYMHWVRQAPGQGLEWMGWINPNSGGTNFAQKFQGRVTMTRGTSITTTYMELSRLRSDDTAVYYCARVSQYRTGWYFGYWGQGTLVTVSS
VL: B8 VL with T30S, K31N, Q42K, Y70D, D92E, N93F
B13: G001_gp1_V08_VRC01c_2021-0074 (antibody, V domains shown)
VH: QVQLVQSGAEVKKPGASVKVSCKASGYTFTDYYMHWVRQAPGQGLEWMGWINPNSGGTNYAQKFQGWVTMTRDTSVSTAYMELRRLRSDDTAVYYCASGRGSSGWALDYWGQGTLVTVSS
VL: B2 VL with V21I, S32Y, G50D, N53I, D70E, G84A, T93A, R103K
B14: G001_gp1_V08_VRC01c_2021-0065 (antibody, V domains shown)
VH: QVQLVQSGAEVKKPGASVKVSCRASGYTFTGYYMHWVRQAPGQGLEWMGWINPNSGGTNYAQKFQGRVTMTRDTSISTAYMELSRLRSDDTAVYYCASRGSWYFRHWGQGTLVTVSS
VL: B8 VL with S26R, Q27H, T30S, Q42K, N53D, Y70D, N93S, K99R
B15: G001_gp1_V08_VRC01c_2021-0077 (antibody, V domains shown)
VH: QVQLVQSGAEVKKPGASVKVSCKASGYTFTDYYMHWVRQASGQGLEWMGWINPNSGGTNYAQEFQGRVTMTRDTSISTAYMELSRLRYDDTAVYYCASGGYSRTWSFNIWGLGTMVTVSS
VL: B2 VL with V21I, N31T, S32Y, G50D, S52T, G84A, K99R, R103K
B16: G001_gp1_V10_VRC01c_166 (antibody, V domains shown)
VH: not shown
VL: B2 VL with V21I, S32Y, G50D, G84A, E92N, R103K
B17: G001_gp1_V10_VRC01c_163 (antibody, V domains shown)
VH: not shown
VL: DIVMTQSPDSLAVSLGERATINCKSSQSVYYSSNKKNYLAWYQQKPGQPPKLLIYWTSTRESGVPDRFSGSGSGTDFTLTISSLQAEDVAVYYCQQYWTFGQGTKVEIK
B18: G001_gp1_V08_VRC01c_2021-0066 (antibody, V domains shown)
VH: QVQLVQSGAEVKKPGASVKVSCKASGYTFTGYYMHWVRQAPGQGLEWMGWINPNSGGTNYALKFQDWVTMTRDTSISTVYMELSRLRYDDTAVYYCARVNGDYGWNFDLWGRGTPVTVSS
VL: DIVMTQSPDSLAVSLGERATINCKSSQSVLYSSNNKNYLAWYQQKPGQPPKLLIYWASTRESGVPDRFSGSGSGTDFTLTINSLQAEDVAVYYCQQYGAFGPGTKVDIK
B19: G001_gp1_V08_VRC01c_2021-0060 (antibody, V domains shown)
VH: QVQLVQSGAEAKKPGASVKVSCKASGYTFTGYYMHWVRQAPGQGLEWMGWINPNSGGTNYAQKFQDWVTMTRDTSISTAYMELNRLRSDDTAVYYCATTGGTAVTAAHRWYFDLWGRGTLVTVSS
VL: EIVLTQSPGTLSLSPGDRATLSCRASQSVSSSYLAWYQQKPGQAPRLLIYGAASRATGIPDRFSGSGSETDFTLTISRLEPEDSAVYYCQHYEGFGQGTRLEIK
B20: G001_gp1_V08_VRC01c_2021-0072 (antibody, V domains shown)
VH: QVQLVQSGAEVKKPGASVKISCKASGYTFSGYYMHWVRQAPGQGLEWMGWINPNSGGTNYAQKFQDWVTMTRDTSISTVYMELSRLRSDDTAVYYCAREWCSGGTCYSGPTFDFWGQGTLVTVSS
VL: B19 VL with D17E, S32N, P41S, A53S, E69G, S84F, G94T, R100K, L101V
B21: G001_gp1_V08_VRC01c_2021-0068 (antibody, V domains shown)
VH: QVQLVQSGAEVKKPGASVKVSCKASGYTFTGYYLHWVRQAPGQGLEWMGWINPNSGGTNYAQKFQGWVTMTRTTSISTAYLELSRLRSDDTAVYYCARSVYFDSSGFYYGYWGQGTLVTVSS
VL: DIQMTQSPSTLSASVGDRVTITCRASQSISSWLAWYQQKPGKAPKLLIYKASSLESGVPSRFSGSGSGTEFTLSISSLQPDDFATYYCQQYETFGQGTKVEIK
B22: G001_gp1_V10_VRC01c_162 (antibody, V domains shown)
VH: QVQLVQSGAEVKNPGASVKVSCKASGYTFSGYYMHWVRQAPGQGLEWMGWINPNSGGTNYAQKFQGRVTMTRDTSISTAYMALSRLRSDDTAVYYCARPAPYDSSGYNWGYWGQGTLVTVSS
VL: B21 VL with I29M, S30N, S31N, S53T, S74T, I102V
B23: G001_gp1_V08_VRC01c_2021-0069 (antibody, V domains shown)
VH: QVQLVQSGAEVKKPGASVKVSCKASGYTFTDYYIHWVRQAPGQGLEWMGWINPNSGGTNYAQKFQDWVTMTRDTSVGTAYMELSRLRSDDTAVYYCARGIWSSWHFDVWGRGTLVTVPS
VL: B21 VL with M4V, S31N, W32S, K45N, S53I, S74T, I102V, K103T
B24: G001_gp1_V08_VRC01c_2021-0076 (antibody, V domains shown)
VH: QVQLVQSGAEVKKPGASVKVSCKASGYTFTDYYIHWVRQAPGQGLEWMGWINPNSGGTNYARKFQGRVTMTRATSISTVYMELSRLRSDDTAVYYCARGYCTVGWCFDLWGRDTLVTVSS
VL: B21 VL with S30G, S31N, K42R, K50Q, L54S, S74T
B25: G001_gp1_V08_VRC01c_2021-0075 (antibody, V domains shown)
VH: QVQLVQSGAEVKKPGASVKVSCKASGYTFTDYYIHWVRQAPGQGLEWMGWINPNSGGPNYAQKFQDWVTMTRDTSISTAHMELSSLRSDDTAVYYCARGVAHTGFEFGYWGQGTLVTVSS
VL: B21 VL with S53T, S74T, S76N
B26: G001_gp1_V10_VRC01c_161 (antibody, V domains shown)
VH: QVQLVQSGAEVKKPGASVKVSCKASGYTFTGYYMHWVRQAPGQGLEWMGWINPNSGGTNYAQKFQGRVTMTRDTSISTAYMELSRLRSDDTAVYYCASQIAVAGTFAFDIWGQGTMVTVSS
VL: B21 VL with S74T, E92Y, V100L
B27: G001_gp1_V08_VRC01c_2021-0063 (antibody, V domains shown)
VH: QVHLVQSGAEVKKPGASVKVSCKASGYTFTGYYMHWVRQAPGQGLEWMGWINPNSGGTNYAQKFQGRVTVTRDTSISTAYMELSRLRSDDTAVYYCATQTHSSGWFVGNNWHFDLWGPGTLVTVSS
VL: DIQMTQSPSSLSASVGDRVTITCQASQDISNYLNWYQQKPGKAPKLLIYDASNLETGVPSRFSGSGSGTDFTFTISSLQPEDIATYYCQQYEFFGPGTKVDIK
B28: G001_gp1_V08_VRC01c_2021-0057 (antibody, V domains shown)
VH: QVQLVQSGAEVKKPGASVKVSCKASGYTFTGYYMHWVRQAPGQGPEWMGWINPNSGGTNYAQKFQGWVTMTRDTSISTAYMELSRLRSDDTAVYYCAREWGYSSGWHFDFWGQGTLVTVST
VL: EIVLTQSPGSLSLSPGERATLSCRASQSGSSRYLAWYQQKPGQAPRLLIYGASNRATGIPNRFSGSGSGTDFVLTISRLEPEDFAVYYCQQYESFGPGTKVDIK
B29: G001_gp1_V08_VRC01c_2021-0059 (antibody, V domains shown)
VH: QAQLMQSGAEVKKPGASVKVSCKASGYTFTDYYMHWVRQAPGQGLEWMGWINPNSGGTNYAQKFQGWVTMTRDTSISTAFMELSRLRSDDTAVYFCATTNRYTSTWLFDYWGQGTLVTVSS
VL: B28 VL with S10T, G29V, R32S, N61D, V73T, P97Q, V101L, D102E

target: eOD-GT8 (engineered outer domain germline-targeting version 8), monomer (HIV-1 gp120 engineered outer domain, …)

Row | Binder | binding result
1 | B1 | binds
2 | B2 | binds
3 | B3 | binds
4 | B4 | binds
5 | B5 | binds
6 | B6 | binds
7 | B7 | binds
8 | B8 | binds
9 | B9 | binds
10 | B10 | binds
11 | B11 | binds
12 | B12 | binds
13 | B13 | binds
14 | B14 | binds
15 | B15 | binds
16 | B16 | binds
17 | B17 | binds
18 | B18 | binds
19 | B19 | binds
20 | B20 | binds
21 | B21 | binds
22 | B22 | binds
23 | B23 | binds
24 | B24 | binds
25 | B25 | binds
26 | B26 | binds
27 | B27 | binds
28 | B28 | binds
29 | B29 | binds
